Test results reported in the supplement of paper PMC9170038.

Tested on: MS2 coat protein
Assay: apparent KD of MS2 coat protein; higher = weaker reporter binding
Settings: Eterna round: R107
Method in brief: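 Titration buffer: 100 mM Tris-HCl pH 7.5, 80 mM KCl, 4 mM MgCl2, without or with constant ligand. Designed RNA switches transcribed on-chip from Illumina sequencing clusters received SNAP-549-labelled MS2 coat protein in twofold steps from 0.7 or 1.5 nM to 3 µM. Apparent KD is the median per design of fits to normalised cluster binding curves.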

[1] = input ligand: theophylline 20 uM
[2] = input ligand: theophylline 2 mM
[3] = input ligand: tryptophan 2.4 mM

Sequence	apparent KD of MS2 coat protein (input ligand: arginine 13.2 mM)	apparent KD of MS2 coat protein (input ligand: none)	apparent KD of MS2 coat protein [1]	apparent KD of MS2 coat protein [2]	apparent KD of MS2 coat protein [3]
UAAUAAAUAAAUCCAAGGUGAAGGUCAGAUACCAGCCAGAUAACUGGCCCUUGGCAGCUGAAUAAACUUGAGGAACACCCAAGUA [TheoAS 28 #OpenEnded #MS2Late #AlternativeMS2]	0.0167 µM	0.023 µM	0.0313 µM	0.082 µM	0.0227 µM
AGUAUUGGAAACAGUACUAGUGAUCCGGUCCGAGGACCGGUACGGCCGCCACUCGAUUUAAAUAAACAUGAGGAUCACCCAUGUA [Ex Tryptophan A 14]	0.0158 µM		0.0172 µM	0.0165 µM	
UAUAUAUAUCACUAACUGUUGUGGACGUCUCGAGGACCGGUACGGCCGCCACUCGGGCGGCCUCACAUGAGGAUCACCCAUGUCC [XTryp A #4]	0.0929 µM		0.192 µM	0.149 µM	
UUUAGUAUCUUAGAUACCAGUUUUGGGUGCUGAACGUCUCACAUGAGGAUCACCCAUGUAAACCCUUGGCAGCUACAUACGUAAA [theeternabot_exclusion_MS2_Theo_B_41]	0.0357 µM		0.0589 µM		0.0519 µM
CGGUUUGUGAUGGAUACCAGCAGAGUGACUGUUUAUCCUGACAUGAGGAUCACCCAUGUGUGCCCUUGGCAGCUGUUGUGGGCUG [8.aA]	0.0663 µM		0.111 µM		0.0657 µM
ACAUGAGGAUCACCCAUGUACAUGAGGGAAGGAGCGGUACAUGUGCCAGGUAGGUCGCCCAACAGCAUCAGCCAUGUACAACAGG [zqwmullin]	0.0413 µM	0.162 µM	0.0726 µM	0.0792 µM	0.061 µM
GGGUGGUAGGCGGCCGCCACUGAUUUUCAUAUAUAUAUAACAUGAGGAUCACCCAUGUAGAUAUGCAGGACCGGGCCUGUUGUUU [aaaL]	0.0266 µM		0.0396 µM	0.0377 µM	
CUAUAAAUAGCGGCCGCCACUUACUCAUGAGGUAACAACAUGAGGAUCACCCAUGUUUGAGGAUCAAGGACCGGGCUAUUUAUAG [AstrosSSTryB#8]	0.0237 µM		0.0328 µM	0.0361 µM	
GCGCGCGCCGAAAGGCGCGCGUGUUGCGAUACCAGCCCGGAAACGGGCCCUUGGCAGCGCACAUGAGGAUCACCCAUGUCAUGUU [Exclusion - Theophylline A Attempt #1 (HarryS)]	0.0149 µM	0.0179 µM	0.0272 µM	0.0245 µM	0.0219 µM
CCUCAAUAGACGGCCGCCACUGAAUCAUGCGGAUACAUGAGGAUCACCCAUGUGGGUGUGGUACGCAGGACCGGGUCAAGACCCG [#13 Same State - Tryptophan B]	0.278 µM	0.145 µM	0.454 µM	1.86 µM	0.149 µM
AUACAUGAGGAUCACCCAUGUCACACAGAAGGAGCGGCUGUAGAGCCAGGUAGGUCGCUGUACUCAAAAUACUUCAUACUCAUGU [JR_Nu_ExcArginiA_Sub033]	0.0349 µM	0.033 µM	0.0347 µM	0.037 µM	0.0275 µM
UGCCGAGACGUGGAUUACCCAUGUACCGAAGGAGCGCCCGAAAGGGCAGGUAGGUCGCGGAGGACAUGAGGAUCACCCAUGUCGA	0.0838 µM	0.0345 µM	0.127 µM	0.166 µM	0.047 µM
CAUGAGAGAUUGUUUUGUGACUCUAACGAUACCAGAGUAGGACUUCUCCCUUGGCAGCGUGUGACAUGAGGAUCACCCAUGUCCA [theeternabot_exclusion_MS2_Theo_A_5]	0.0118 µM		0.0129 µM		0.0113 µM
GAGCUGAUGUAGAGCUAAUAUAAGAGAGAUACCAGUACAGAAAUGUACCCUUGGCAGCUCAACUUUACAUGAGGAUCACCCAUGU [Ex Theophylline A 21]	0.0122 µM		0.0134 µM		0.016 µM
UGUAUGGACUGAAGGAGCGGGAAAUAAACCUGAGGAACACCCAGGUAAUAGGCGAAAGCCACCCAGGUAGGUCGCAGUCCAUACU	0.0172 µM	0.0136 µM	0.0148 µM	0.0144 µM	0.0188 µM
UGUAACAUGAGGAUCACCCAUGUGAGUGAUACCAGAUAAGUAGUAGUCCCUUGGCAGCAUAUUGGGCGAGUGUAUAGUCUAUACG [Same State - Theophylline A (Freestyle 8)]	0.111 µM		0.183 µM		0.15 µM
UUAAUUAUUGAAUCGUAUUGGUAUUAAGAACGAGGACCGGUACGGCCGCCACUCGUGAUAUACAUGAGGAUCACCCAUGUUAGCA [JR_Nu_SSTryptoA_Sub022]	0.015 µM		0.0186 µM	0.0181 µM	
GGUGGAGGCGUGGGACUUGUCUGAACGGAUACCAGCCACAUCACGGGCCCUUGGCAGCUGUACAUGAGGAUCACCCAUGUCGGUC [Atestevete]	0.0336 µM		0.0452 µM		0.0348 µM
AGCAUGUUAGCAGAUACCAGACGUUUUAUGAUCCAUGUAACAUGAGGAUCACCCAUGUAAGUCCCUUGGCAGCUGAAAUAAUGCA [JR_SSTheophyB_Sub011]	0.0757 µM		0.187 µM		0.127 µM

Sequence	apparent KD of MS2 coat protein (input ligand: arginine 13.2 mM)	apparent KD of MS2 coat protein (input ligand: none)	apparent KD of MS2 coat protein [1]	apparent KD of MS2 coat protein [2]	apparent KD of MS2 coat protein [3]
UACCGAUGAAGAAGGAGCGAUUUUAUGUUACAUGAGGAUCACCCAUGUGGACUAGGUGAAGAUCAGGUAGGUCGCUUCAUCGGUA [SSAB NP+V+V2 #20]	0.0198 µM	0.0203 µM	0.0319 µM	0.022 µM	0.0245 µM
AGAGUCAGACAAAAGUCUGGCUCAACCGAAGGAGCGUCCGAAAGGACAGGUAGGUCGCGGUUACCUGAGGAUCACCCGGGUUCCU [ArgAS 9 #OpenEnded #AlternativeMS2]	0.1 µM	0.065 µM	0.11 µM	1.04 µM	0.659 µM
GGACUAACCAGAAGGAGCGACACGCAGAAACUGCUAAAUCCUCCGCACGAGGAUCACCCGUGUCAGGUAGGUCGCUGGUUAGUCG [ArgBX 28]	0.0362 µM	0.0455 µM	0.0667 µM	0.0475 µM	0.0499 µM
AGUACAUGAGGAUCACCCAUGUGCCGGUAACGAGGACCGGUACGGCCGCCACUCGAUGUACCUCAAUUUGAUUGAGAUAAGAAAA [Anorbian]	0.0342 µM		0.0576 µM	0.0474 µM	
AACAUACAAUAAAAGGUGGAAAUAAGGCGGCGAGGACCGGUACGGCCGCCACUCGCGUACAUGAGGAUCACCCAUGUCUGAAACU [Same State - Tryptophan A (Freestyle 2)]	0.0125 µM	0.0228 µM	0.0242 µM	0.0288 µM	0.0191 µM
AUUUACAUGGUCAUAUAUAUAUCGUCAGAUACCAGACUAGAUAUUGUCCCUUGGCAGCUGUUACAUGAGGAUCACCCAUGUUAUA [JR_Nu_ExcTheophyA_Sub020]	0.0545 µM		0.113 µM		0.178 µM
GCCGCGGCCGGAAUAAACAUGGGUAAAUAACGAGGACCGGUACGGCCGCCACUCGAGAUAAAUAACAUGAGGAUCACCCAUGUAC [Exclusion Tryp A GF11]	0.043 µM		0.111 µM	0.123 µM	
AAUUCCUCACAUGAGGAUCACCCAUGUGAAGGAGCGCCGAAUAAGGCAGGUAGGUCGCACAUGGAAACCUCUACGAAAGUAGUAA [XArg-A 3 NuV1V2]	0.0165 µM	0.0158 µM	0.0208 µM	0.0182 µM	0.0156 µM
GUUAAUAGAAAACUAUUAACAGUGGGUGAACGAGGACCGGUACGGCCGCCACUCGGACAUGAGGAUCACCCAUGUCCAUGUGAAA [AstrosExyTryA#5]	0.0186 µM	0.0169 µM	0.0169 µM	0.0156 µM	0.0354 µM
GAGCUCGUGGACUGGCGUGCUCCGCUCCGUCGAGGACCGGUACGGCCGCCACUCGACAUGAGGAUCACCCAUGUGUGAGCUCGCU [#1 Exclusion - Tryptophan A Attempt #21 (HarryS)]	0.0611 µM		0.185 µM	0.39 µM	
UCGGAUGCGGCGGCCGCCACUCGCGGAUAACGAUAGCUUAACAUGAGGAUCACCCAUGUGUCAUGGAGGACCGGGCCCAUACCGU [pbpmullin]	0.0188 µM		0.0364 µM	0.0263 µM	
UUAGAUAUGACGGAUACCAGCGUGUUGUAGAACAUGAGGAUCACCCAUGUAGUGAUCGAGCGCCCUUGGCAGCUGGUAUGUUUGG [7.T]	0.175 µM		0.203 µM		0.335 µM
AGAGUCUAGUCGGCCGCCACUCAUGUCCAAAGGACAUGAGGAUCACCCAUGUACCUAAGGUACAUGAGGACCGGGACUGGACUCA [Omei Tryp B SS C v5]	0.0131 µM	0.0244 µM	0.131 µM	0.336 µM	0.00792 µM
GGACUAACCAGAAGGAGCGGCACGCAGAAACUGCUAAUUCCUCCGCACGAGGAUCACCCGUGUCAGGUAGGUCGCUGGUUAGUCG [ArgBX 28]	0.0149 µM	0.0113 µM	0.0138 µM	0.0148 µM	0.013 µM
GAUGGAAUAAGAGAUACCAGACACAAUUUAGCAUGUAUAUACAUGAGGAUCACCCAUGUAGUCCCUUGGCAGCUCUGGUUAGUGU [theeternabot_exclusion_MS2_Theo_B_48]	0.0214 µM		0.0277 µM		0.0208 µM
GGCGCGCGCCAACAUGAGGAUCACCCAUGUCGAGGACCGGUACGGCCGCCACUCGAACGAGUGAAGCGCGCGCGCGGGCGACCGC [Saa]	0.0366 µM	0.0397 µM	0.0425 µM	0.0471 µM	0.0771 µM
AUAGUCUAGAGUGAUACCAGACUACAUGAGGAUCACCCAUGUAUCUUUUGGUUAUCAUGUGUCCCUUGGCAGCACGCAUGUAUAG [JR_ExcTheophyB_Sub013]	0.0113 µM		0.0124 µM		0.00994 µM
AAUGAGUGGUGGUCAAGUGAUCCUCAUGAACGAGGACCGGUACGGCCGCCACUCGAUAACAUGAGGAUCACCCAUGUAAUAAUAA [|T'-M'-Trp-Ms2|_Design8]	0.0156 µM		0.0189 µM	0.0224 µM	
GAAAGAUGAGGCGGCAGUACCGAUGUCGAUACCAGCAUGAACAAAUGCCCUUGGCAGCGACAUGAGGAUCACCCAUGUAUCUGCG [Reraatlaan]	0.0145 µM		0.0161 µM		0.0116 µM
